Literature values, collected in patent US20200069786A1, “COMPOSITION AND PROCESS FOR PREPARING VACCINE” (TREOS BIO ZRT., priority 2018, published 2020).
Read-outs that look alike come from different tables or passages of the source.

System: TSA
[1] = TSA expression rate in Cervical cancer
[2] = TSA expression rate in GASTRIC cancer
[3] = TSA expression rate in MELANOMA
[4] = TSA expression rate in LUNG cancer
[5] = TSA expression rate in Esophageal

| Molecule | TSA Expression Rate (ER) (BREAST) [%] | TSA Expression Rate (ER) (LUNG) [%] | Expression Rate (ER) % (TSA expression rate in CRC) [%] | further results |
| --- | --- | --- | --- | --- |
| NY-BR-1 (protein, UniProt Q9BXX3 1-1397, looked up) Ankyrin repeat …: MEEISAAAVKVVPGPERPSPFSQLVYTSNDSYIVHSGDLRKIHKAASRGQVRKLEKMTKRKKTINLNIQDAQKRTALHWACVNGHEEVVTFLVDRKCQLDVLDGEHRTPLMKALQCHQEACANILIDSGADINLVDVYGNTALHYAVYSEILSVVAKLLSHGAVIEVHNKASLTPLLLSITKRSEQIVEFLLIKNANANAVNKYKCTALMLAVCHGSSEIVGMLLQQNVDVFAADICGVTAEHYAVTCGFHHIHEQIMEYIRKLSKNHQNTNPEGTSAGTPDEAAPLAERTPDTAESLVEKTPDEAAPLVERTPDTAESLVEKTPDEAASLVEGTSDKIQCLEKATSGKFEQSAEETPREITSPAKETSEKFTWPAKGRPRKIAWEKKEDTPREIMSPAKETSEKFTWAAKGRPRKIAWEKKETPVKTGCVARVTSNKTKVLEKGRSKMIACPTKESSTKASANDQRFPSESKQEEDEEYSCDSRSLFESSAKIQVCIPESIYQKVMEINREVEEPPKKPSAFKPAIEMQNSVPNKAFELKNEQTLRADPMFPPESKQKDYEENSWDSESLCETVSQKDVCLPKATHQKEIDKINGKLEESPNKDGLLKATCGMKVSIPTKALELKDMQTFKAEPPGKPSAFEPATEMQKSVPNKALELKNEQTLRADEILPSESKQKDYEENSWDTESLCETVSQKDVCLPKAAHQKEIDKINGKLEGSPVKDGLLKANCGMKVSIPTKALELMDMQTFKAEPPEKPSAFEPAIEMQKSVPNKALELKNEQTLRADEILPSESKQKDYEESSWDSESLCETVSQKDVCLPKATHQKEIDKINGKLEESPDNDGFLKAPCRMKVSIPTKALELMDMQTFKAEPPEKPSAFEPAIEMQKSVPNKALELKNEQTLRADQMFPSESKQKKVEENSWDSESLRETVSQKDVCVPKATHQKEMDKISGKLEDSTSLSKILDTVHSCERARELQKDHCEQRTGKMEQMKKKFCVLKKKLSEAKEIKSQLENQKVKWEQELCSVRLTLNQEEEKRRNADILNEKIREELGRIEEQHRKELEVKQQLEQALRIQDIELKSVESNLNQVSHTHENENYLLHENCMLKKEIAMLKLEIATLKHQYQEKENKYFEDIKILKEKNAELQMTLKLKEESLTKRASQYSGQLKVLIAENTMLTSKLKEKQDKEILEAEIESHHPRLASAVQDHDQIVTSRKSQEPAFHIAGDACLQRKMNVDVSSTIYNNEVLHQPLSEAQRKSKSLKINLNYAGDALRENTLVSEHAQRDQRETQCQMKEAEHMYQNEQDNVNKHTEQQESLDQKLFQLQSKNMWLQQQLVHAHKKADNKSKITIDIHFLERKMQHHLLKEKNEEIFNYNNHLKNRIYQYEKEKAETENS | 47 | – | – | Expression Rate (ER) % (TSA expression rate in HEAD and NECK): 2% |
| GASZ (protein, UniProt Q8WWH4 1-475, looked up) Ankyrin repeat, SAM and basic …: MAASALRGLPVAGGGESSESEDDGWEIGYLDRTSQKLKRLLPIEEKKEKFKKAMTIGDVSLVQELLDSGISVDSNFQYGWTPLMYAASVANAELVRVLLDRGANASFEKDKQSILITACSAHGSEEQILKCVELLLSRNADPNVACRRLMTPIMYAARDGHTQVVALLVAHGAEVNTQDENGYTALTWAARQGHKNIVLKLLELGANKMLQTKDGKMPSEIAKRNKHHEIFNLLSFTLNPLEGKLQQLTKEDTICKILTTDSDREKDHIFSSYTAFGDLEVFLHGLGLEHMTDLLKERDITLRHLLTMREDEFTKNGITSKDQQKILAALKELQVEEIQFGELSEETKLEISGDEFLNFLLKLNKQCGHLITAVQNVITELPVNSQKITLEWASPQNFTSVCEELVNNVEDLSEKVCKLKDLIQKLQNERENDPTHIQLREEVSTWNSRILKRTAITICGFGFLLFICKLTFQRK | – | 29 | 22 | TSA Expression Rate (ER) (THYROID): 13%; Expression Rate (ER) % [1]: 50%; Expression Rate (ER) % [2]: 0%; Expression Rate (ER) % [3]: 17% |
| FSIP1 (protein, UniProt Q8NA03 1-581, looked up) Fibrous sheath-interacting …: MDIIKGNLDGISKPASNSRIRPGSRSSNASLEVLSTEPGSFKVDTASNLNSGKEDHSESSNTENRRTSNDDKQESCSEKIKLAEEGSDEDLDLVQHQIISECSDEPKLKELDSQLQDAIQKMKKLDKILAKKQRREKEIKKQGLEMRIKLWEEIKSAKYSEAWQSKEEMENTKKFLSLTAVSEETVGPSHEEEDTFSSVFHTQIPPEEYEMQMQKLNKDFTCDVERNESLIKSGKKPFSNTEKIELRGKHNQDFIKRNIELAKESRNPVVMVDREKKRLVELLKDLDEKDSGLSSSEGDQSGWVVPVKGYELAVTQHQQLAEIDIKLQELSAASPTISSFSPRLENRNNQKPDRDGERNMEVTPGEKILRNTKEQRDLHNRLREIDEKLKMMKENVLESTSCLSEEQLKCLLDECILKQKSIIKLSSERKKEDIEDVTPVFPQLSRSIISKLLNESETKVQKTEVEDADMLESEECEASKGYYLTKALTGHNMSEALVTEAENMKCLQFSKDVIISDTKDYFMSKTLGIGRLKRPSFLDDPLYGISVSLSSEDQHLKLSSPENTIADEQETKDAAEECKEP | 42 | – | – | – |
| DKKL1 (protein, UniProt Q9UK85 31-242, looked up) Dickkopf-like protein 1: APIHDADAQESSLGLTGLQSLLQGFSRLFLKGNLLRGIDSLFSAPMDFRGLPGNYHKEENQEHQLGNNTLSSHLQIDKMTDNKTGEVLISENVVASIQPAEGSFEGDLKVPRMEEKEALVPIQKATDSFHTELHPRVAFWIIKLPRRRSHQDALEGGHWLSEKRHRLQAIRDGLRKGTHKDVLEEGTESSSHSRLSPRKTHLLYILRPSRQL | 20 | – | 0 | TSA Expression Rate (ER) (OVARIAN): 57%; TSA Expression Rate (ER) (THYROID): 0%; Expression Rate (ER) % [1]: 33%; Expression Rate (ER) % (TSA expression rate in Kidney): 0%; Expression Rate (ER) % [4]: 12%; Expression Rate (ER) % [3]: 25%; Expression Rate (ER) % (TSA expression rate in PROSTATE cancer): 13% |
| CEP55 (protein, UniProt Q53EZ4 1-464, looked up) Centrosomal protein of 55 kDa: MSSRSTKDLIKSKWGSKPSNSKSETTLEKLKGEIAHLKTSVDEITSGKGKLTDKERHRLLEKIRVLEAEKEKNAYQLTEKDKEIQRLRDQLKARYSTTTLLEQLEETTREGERREQVLKALSEEKDVLKQQLSAATSRIAELESKTNTLRLSQTVAPNCFNSSINNIHEMEIQLKDALEKNQQWLVYDQQREVYVKGLLAKIFELEKKTETAAHSLPQQTKKPESEGYLQEEKQKCYNDLLASAKKDLEVERQTITQLSFELSEFRRKYEETQKEVHNLNQLLYSQRRADVQHLEDDRHKTEKIQKLREENDIARGKLEEEKKRSEELLSQVQFLYTSLLKQQEEQTRVALLEQQMQACTLDFENEKLDRQHVQHQLHVILKELRKARNQITQLESLKQLHEFAITEPLVTFQGETENREKVAASPKSPTAALNESLVECPKCNIQYPATEHRDLLVHVEYCSK | – | 94 | – | – |
| ZNF645 (protein, UniProt Q8N7E2 1-425, looked up) E3 ubiquitin-protein ligase …: MNKMPAGEQECEYNKEGKYYSKGVKLVRKKKKIPGYRWGDIKINIIGEKDDLPIHFCDKCDLPIKIYGRIIPCKHAFCYHCANLYDKVGYKVCPRCRYPVLRIEAHKRGSVFMCSIVQQCKRTYLSQKSLQAHIKRRHKRARKQVTSASLEKVRPHIAPPQTEISDIPKRLQDRDHLSYIPPEQHTMVSLPSVQHMLQEQHNQPHKDIQAPPPELSLSLPFPIQWETVSIFTRKHGNLTVDHIQNNSDSGAKKPTPPDYYPECQSQPAVSSPHHIIPQKQHYAPPPSPSSPVNHQMPYPPQDVVTPNSVRSQVPALTTTYDPSSGYIIVKVPPDMNSPPLRAPQSQNGNPSASEFASHHYNLNILPQFTENQETLSPQFTQTDAMDHRRWPAWKRLSPCPPTRSPPPSTLHGRSHHSHQRRHRRY | – | 68 | – | – |
| FBXO39 (protein, UniProt Q8N4B4 1-442, looked up) F-box only protein 39: MDEESELIQPQDQSCWAFLPDLCLCRVFWWLGDRDRSRAALVCRKWNQMMYSAELWRYRTITFSGRPSRVHASEVESAVWYVKKFGRYLEHLEVKFMNPYNAVLTKKFQVTMRGLLSCLSKSNNRLKSLSIQYLELDRLVWRNSIRSSFISSLSFFLKKMGKRLDYLNLKGARLTVEQGCQILDSLSYMRNENVISELNIEDYFSHHLAVYNSPQFKKTMSTFHNLVSLNLNYNCISDELLENLCENASTLRTINIKCHVHDPHGQVIWGMSWAKLARQATNLKVNFFFERIMKYERLARILLQEIPIRSISLRSCYFSDPDCSMRPTLIDLLPTFRHTLQKLTCEFNNNHESLDEELHLLIISCRKLFYFKIWAFLDVSFVERILKSQKERQCALRVFKARIYTNRYETNEEDKTLQEIYRKYRKLIESELSYFVIVYSVM | 38 | – | 39 | Expression Rate (ER) % [2]: 4%; Expression Rate (ER) % [4]: 0% |
| CT46 (protein, UniProt Q86X24 1-394, looked up) HORMA domain-containing …: MATAQLQRTPMSALVFPNKISTEHQSLVLVKRLLAVSVSCITYLRGIFPECAYGTRYLDDLCVKILREDKNCPGSTQLVKWMLGCYDALQKKYLRMVVLAVYTNPEDPQTISECYQFKFKYTNNGPLMDFISKNQSNESSMLSTDTKKASILLIRKIYILMQNLGPLPNDVCLTMKLFYYDEVTPPDYQPPGFKDGDCEGVIFEGEPMYLNVGEVSTPFHIFKVKVTTERERMENIDSTILSPKQIKTPFQKILRDKDVEDEQEHYTSDDLDIETKMEEQEKNPASSELEEPSLVCEEDEIMRSKESPDLSISHSQVEQLVNKTSELDMSESKTRSGKVFQNKMANGNQPVKSSKENRKRSQHESGRIVLHHFDSSSQESVPKRRKFSEPKEHI | 29 | 47 | 7 | Expression Rate (ER) % (TSA expression rate in BLADDER cancer): 20%; Expression Rate (ER) % [5]: 35% |
| SPAG8 (protein, UniProt Q99932 1-485, looked up) Sperm-associated antigen 8: METNESTEGSRSRSRSLDIQPSSEGLGPTSEPFPSSDDSPRSALAAATAAAAAAASAAAATAAFTTAKAAALSTKTPAPCSEFMEPSSDPSLLGEPCAGPGFTHNIAHGSLGFEPVYVSCIAQDTCTTTDHSSNPGPVPGSSSGPVLGSSSGAGHGSGSGSGPGCGSVPGSGSGPGPGSGPGSGPGHGSGSHPGPASGPGPDTGPDSELSPCIPPGFRNLVADRVPNYTSWSQHCPWEPQKQPPWEFLQVLEPGARGLWKPPDIKGKLMVCYETLPRGQCLLYNWEEERATNHLDQVPSMQDGSESFFFRHGHRGLLTMQLKSPMPSSTTQKDSYQPPGNVYWPLRGKREAMLEMLLQHQICKEVQAEQEPTRKLFEVESVTHHDYRMELAQAGTPAPTKPHDYRQEQPETFWIQRAPQLPGVSNIRTLDTPFRKNCSFSTPVPLSLGKLLPYEPENYPYQLGEISSLPCPGGRLGGGGGRMTPF | 29 | 43 | – | – |
| HSPB9 (protein, UniProt Q9BQS6 1-159, looked up) Heat shock protein beta-9: MQRVGNTFSNESRVASRCPSVGLAERNRVATMPVRLLRDSPAAQEDNDHARDGFQMKLDAHGFAPEELVVQVDGQWLMVTGQQQLDVRDPERVSYRMSQKVHRKMLPSNLSPTAMTCCLTPSGQLWVRGQCVALALPEAQTGPSPRLGSLGSKASNLTR | – | 40 | 40 | Expression Rate (ER) % [5]: 20% |
